Reference: patent publication US20250073302A1, “CYCLIC PEPTIDES AS PROTEASOME STIMULATORS” (Purdue Research Foundation, priority 2023, published 2025)
Non-standard residues stand in square brackets, D forms with d. dBpa = N[C@H](Cc1ccc(C(=O)c2ccccc2)cc1)C(=O)O; dPhe(3,4-F2) = N[C@H](Cc1ccc(F)c(F)c1)C(=O)O; dPhe(3-F) = N[C@H](Cc1cccc(F)c1)C(=O)O; dPhe(4-F) = N[C@H](Cc1ccc(F)cc1)C(=O)O

biological target: T1, 20S CP; assay: TAS-1 biochemical assay (20S CP stimulation); conditions: TAS-1 assay
T1 construct: purchased South Bay
Method: Each compound was initially tested at 10 μM. Each well contained […] of 11.4 μM TAS-1 solution in Tris HCl (50 mM, pH 7.4) along with 5 nM of 20 sCP (South Bay). 1 μL of the test compound, control, or DMSO was added to the desired well to obtain a final DMSO concentration of 2%, with the total volume being 50 μL. Compounds were tested in three replicates that each had technical triplicates. The fluorescence was recorded using a SynergyNeo 2, where the excitation and emission was set to 335 nm and 493 nm. The plate reader was heated to 37° C. The fluorescence was recorded every 90 seconds over a 1-hour period. A simple linear regression was performed on the data plotted against time to obtain the rate of hydrolysis of TAS-1 by the 20S CP. The data was then normalized against DMSO to get the percent stimulation.

| 20S CP stimulatory activity (in words, SAR compared to CyPPS1) | Substance |
| --- | --- |
| stimulatory activity was maintained | TLFXRA [SEQ ID NO: 21] (cyclo(T[dL]F[dBpa]R[dA]); SMILES CC(C)C[C@H]1NC(=O)[C@H]([C@@H](C)O)NC(=O)[C@@H](C)NC(=O)[C@H](CCCNC(=N)N)NC(=O)[C@@H](Cc2ccc(C(=O)c3ccccc3)cc2)NC(=O)[C@H](Cc2ccccc2)NC1=O) [CyPPS21, cyclic peptide; AA1 Thr, AA2 D-Leu, AA3 Phe, AA4 D-BPA, AA5 Arg, AA6 D-Ala] |
| decline in stimulatory activity | TLFYRA [SEQ ID NO: 17] (cyclo(T[dL]F[dY]R[dA]); SMILES CC(C)C[C@H]1NC(=O)[C@H]([C@@H](C)O)NC(=O)[C@@H](C)NC(=O)[C@H](CCCNC(=N)N)NC(=O)[C@@H](Cc2ccc(O)cc2)NC(=O)[C@H](Cc2ccccc2)NC1=O) [CyPPS17, cyclic peptide; AA1 Thr, AA2 D-Leu, AA3 Phe, AA4 D-Tyr, AA5 Arg, AA6 D-Ala] |
| retained activity | TLFXRA [SEQ ID NO: 19] (cyclo(T[dL]F[dPhe(3-F)]R[dA]); SMILES CC(C)C[C@H]1NC(=O)[C@H]([C@@H](C)O)NC(=O)[C@@H](C)NC(=O)[C@H](CCCNC(=N)N)NC(=O)[C@@H](Cc2cccc(F)c2)NC(=O)[C@H](Cc2ccccc2)NC1=O) [CyPPS19, cyclic peptide; AA1 Thr, AA2 D-Leu, AA3 Phe, AA4 D-Phe (3F), AA5 Arg, AA6 D-Ala] |
| greatest loss of stimulatory activity | TAFFRA [SEQ ID NO: 3] (cyclo(T[dA]F[dF]R[dA]); SMILES C[C@H]1NC(=O)[C@H](CCCNC(=N)N)NC(=O)[C@@H](Cc2ccccc2)NC(=O)[C@H](Cc2ccccc2)NC(=O)[C@@H](C)NC(=O)[C@H]([C@@H](C)O)NC1=O) [CyPPS3, cyclic peptide; AA1 Thr, AA2 D-Ala, AA3 Phe, AA4 D-Phe, AA5 Arg, AA6 D-Ala] |
| decreased activity | TKFFRA [SEQ ID NO: 11] (cyclo(T[dK]F[dF]R[dA]); SMILES C[C@H]1NC(=O)[C@H](CCCNC(=N)N)NC(=O)[C@@H](Cc2ccccc2)NC(=O)[C@H](Cc2ccccc2)NC(=O)[C@@H](CCCCN)NC(=O)[C@H]([C@@H](C)O)NC1=O) [CyPPS11, cyclic peptide; AA1 Thr, AA2 D-Lys, AA3 Phe, AA4 D-Phe, AA5 Arg, AA6 D-Ala] |
| stimulatory activity was preserved | TLFFAR [SEQ ID NO: 6] (cyclo(T[dL]F[dF]A[dR]); SMILES CC(C)C[C@H]1NC(=O)[C@H]([C@@H](C)O)NC(=O)[C@@H](CCCNC(=N)N)NC(=O)[C@H](C)NC(=O)[C@@H](Cc2ccccc2)NC(=O)[C@H](Cc2ccccc2)NC1=O) [CyPPS6, cyclic peptide; AA1 Thr, AA2 D-Leu, AA3 Phe, AA4 D-Phe, AA5 Ala, AA6 D-Arg] |
| maintained stimulatory activity | TLFFRS [SEQ ID NO: 22] (cyclo(T[dL]F[dF]R[dS]); SMILES CC(C)C[C@H]1NC(=O)[C@H]([C@@H](C)O)NC(=O)[C@@H](CO)NC(=O)[C@H](CCCNC(=N)N)NC(=O)[C@@H](Cc2ccccc2)NC(=O)[C@H](Cc2ccccc2)NC1=O) [CyPPS22, cyclic peptide; AA1 Thr, AA2 D-Leu, AA3 Phe, AA4 D-Phe, AA5 Arg, AA6 D-Ser] |
| decreased activity | KLFFRA [SEQ ID NO: 7] (cyclo(K[dL]F[dF]R[dA]); SMILES CC(C)C[C@H]1NC(=O)[C@H](CCCCN)NC(=O)[C@@H](C)NC(=O)[C@H](CCCNC(=N)N)NC(=O)[C@@H](Cc2ccccc2)NC(=O)[C@H](Cc2ccccc2)NC1=O) [CyPPS7, cyclic peptide; AA1 Lys, AA2 D-Leu, AA3 Phe, AA4 D-Phe, AA5 Arg, AA6 D-Ala] |
| decreased activity | TLFXRA [SEQ ID NO: 18] (cyclo(T[dL]F[dPhe(4-F)]R[dA]); SMILES CC(C)C[C@H]1NC(=O)[C@H]([C@@H](C)O)NC(=O)[C@@H](C)NC(=O)[C@H](CCCNC(=N)N)NC(=O)[C@@H](Cc2ccc(F)cc2)NC(=O)[C@H](Cc2ccccc2)NC1=O) [CyPPS18, cyclic peptide; AA1 Thr, AA2 D-Leu, AA3 Phe, AA4 D-Phe (4F), AA5 Arg, AA6 D-Ala] |

The next lines start with the substance.

| Substance | 20S CP stimulatory activity (in words, SAR compared to CyPPS1) |
| --- | --- |
| TLFXRA [SEQ ID NO: 20] (cyclo(T[dL]F[dPhe(3,4-F2)]R[dA]); SMILES CC(C)C[C@H]1NC(=O)[C@H]([C@@H](C)O)NC(=O)[C@@H](C)NC(=O)[C@H](CCCNC(=N)N)NC(=O)[C@@H](Cc2ccc(F)c(F)c2)NC(=O)[C@H](Cc2ccccc2)NC1=O) [CyPPS20, cyclic peptide; AA1 Thr, AA2 D-Leu, AA3 Phe, AA4 D-Phe (3, 4F), AA5 Arg, AA6 D-Ala] | retained activity |
| TLYFRA [SEQ ID NO: 16] (cyclo(T[dL]Y[dF]R[dA]); SMILES CC(C)C[C@H]1NC(=O)[C@H]([C@@H](C)O)NC(=O)[C@@H](C)NC(=O)[C@H](CCCNC(=N)N)NC(=O)[C@@H](Cc2ccccc2)NC(=O)[C@H](Cc2ccc(O)cc2)NC1=O) [CyPPS16, cyclic peptide; AA1 Thr, AA2 D-Leu, AA3 Tyr, AA4 D-Phe, AA5 Arg, AA6 D-Ala] | decline in stimulatory activity |
| TIFFRA [SEQ ID NO: 12] (cyclo(T[dI]F[dF]R[dA]); SMILES CC[C@@H](C)[C@H]1NC(=O)[C@H]([C@@H](C)O)NC(=O)[C@@H](C)NC(=O)[C@H](CCCNC(=N)N)NC(=O)[C@@H](Cc2ccccc2)NC(=O)[C@H](Cc2ccccc2)NC1=O) [CyPPS12, cyclic peptide; AA1 Thr, AA2 D-Ile, AA3 Phe, AA4 D-Phe, AA5 Arg, AA6 D-Ala] | lack of activity |
| TLFARA [SEQ ID NO: 5] (cyclo(T[dL]F[dA]R[dA]); SMILES CC(C)C[C@H]1NC(=O)[C@H]([C@@H](C)O)NC(=O)[C@@H](C)NC(=O)[C@H](CCCNC(=N)N)NC(=O)[C@@H](C)NC(=O)[C@H](Cc2ccccc2)NC1=O) [CyPPS5, cyclic peptide; AA1 Thr, AA2 D-Leu, AA3 Phe, AA4 D-Ala, AA5 Arg, AA6 D-Ala] | greatest loss of stimulatory activity |
| TDFFRA [SEQ ID NO: 10] (cyclo(T[dD]F[dF]R[dA]); SMILES C[C@H]1NC(=O)[C@H](CCCNC(=N)N)NC(=O)[C@@H](Cc2ccccc2)NC(=O)[C@H](Cc2ccccc2)NC(=O)[C@@H](CC(=O)O)NC(=O)[C@H]([C@@H](C)O)NC1=O) [CyPPS10, cyclic peptide; AA1 Thr, AA2 D-Asp, AA3 Phe, AA4 D-Phe, AA5 Arg, AA6 D-Ala] | decreased activity |
| VLFFRA [SEQ ID NO: 9] (cyclo(V[dL]F[dF]R[dA]); SMILES CC(C)C[C@H]1NC(=O)[C@H](C(C)C)NC(=O)[C@@H](C)NC(=O)[C@H](CCCNC(=N)N)NC(=O)[C@@H](Cc2ccccc2)NC(=O)[C@H](Cc2ccccc2)NC1=O) [CyPPS9, cyclic peptide; AA1 Val, AA2 D-Leu, AA3 Phe, AA4 D-Phe, AA5 Arg, AA6 D-Ala] | maintained stimulatory activity |
